In publication PMC10195009:

Each substance was assayed against afucosylated IgG-specific nanobody X0 (assay: SPR). Details: parent: est. 0; read off a plot.
For afucosylated IgG1 Fc E269A, the other: log2 fold change in KD was 0.95 log2.
For afucosylated IgG1 Fc H268A, the other: log2 fold change in KD was -1.5 log2.
afucosylated IgG1 Fc I332A gave an other: log2 fold change in KD of 0.08 log2.
Substance afucosylated IgG1 Fc L328A has an other: log2 fold change in KD of -0.15 log2.
afucosylated IgG1 Fc P329A showed an other: log2 fold change in KD of 0.03 log2.
